The term Kd denotes the constant that tells how readily two partners part at equilibrium. Read a high Kd as weaker binding. What is called koff is the rate constant with which the complex falls apart. The kon is the second-order rate constant of association. Low readings indicate slower complex formation, high ones faster complex formation.

Consider 14 molecules from patent publication US20240002542A1 (SYNTHEKINE, published 2024).

The target in assay [1] is T1, hGP130-his (Sino Biological, Catalog #10974) (human, UniProt P40189 23-619).
T1 construct: Bought his-tagged cytokine receptor used as SPR analyte; also called human gp130 receptor subunit; IL6 receptor beta subunit; not shown: his tag
T1 sequence: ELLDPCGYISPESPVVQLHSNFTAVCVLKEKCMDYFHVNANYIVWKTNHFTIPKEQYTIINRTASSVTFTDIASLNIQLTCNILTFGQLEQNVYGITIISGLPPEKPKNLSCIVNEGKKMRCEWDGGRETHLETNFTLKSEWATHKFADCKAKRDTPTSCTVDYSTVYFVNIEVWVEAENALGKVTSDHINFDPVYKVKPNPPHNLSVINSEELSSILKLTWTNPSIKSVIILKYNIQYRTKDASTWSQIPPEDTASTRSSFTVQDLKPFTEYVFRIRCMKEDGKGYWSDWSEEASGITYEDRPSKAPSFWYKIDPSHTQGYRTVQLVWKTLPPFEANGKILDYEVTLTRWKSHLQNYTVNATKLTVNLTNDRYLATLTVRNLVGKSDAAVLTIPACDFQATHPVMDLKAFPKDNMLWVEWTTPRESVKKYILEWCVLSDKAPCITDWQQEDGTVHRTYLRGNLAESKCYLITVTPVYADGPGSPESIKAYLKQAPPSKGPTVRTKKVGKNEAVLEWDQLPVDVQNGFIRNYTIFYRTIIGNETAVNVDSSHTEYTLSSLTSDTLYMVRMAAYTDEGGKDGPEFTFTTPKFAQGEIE
As to the kind of experiment: SPR Biacore T200; ratio experimental/calculated Rmax. Here is the method: (§1) All experiments were conducted in 10 mM Hepes, 150 mMv NaCl, 0.05% (v/v) Polysorbate 20 (PS20) and 3 mMv EDTA (HBS-EP+ buffer) on a Biacore® T200 instrument equipped with a Protein A chip (Cytiva). Mono-Fc VHH ligands were flowed at 5 μl/min for variable time ranging from 18 to 300 seconds, reaching the capture loads listed in the tables below.
(§2) Following ligand capture, injections of a 2-fold dilution series of his-tagged cytokine receptors typically comprising at least five concentrations between 1 μM and 1 nM were performed in either high performance or single cycle kinetics mode. Surface regeneration was achieved by flowing 10 mMv glycine-HCl, pH 1.5 (60 seconds, 50 μL/min). Buffer-subtracted sensograms were processed with Biacore® T200 Evaluation Software and globally fit with a 1:1 Langmuir binding model (bulk shift set to zero) to extract kinetics and affinity constants (ka, kd, KD). RMAX<100 RU indicates surface density compatible with kinetics analysis. Calculated Rmax were generated using the equation Rmax=Load (RU)×valency of ligand×(Molecular weight of analyte/Molecular weight of ligand. Surface activity was defined as the ratio experimental/calculated Rmax. See tables below for sample information and experimental results.

Assay [2] addresses T1, hGP130-his (Sino Biological, Catalog …). Description: SPR Biacore T200, hgp130 arm. The method, then: as §1, §2
On the technique in general: Surface plasmon resonance follows binding to a sensor surface in real time, without labels.

Assay [3] has the same target. Description: SPR Biacore T200; mono-Fc VHH on Protein A chip, hGP130-his analyte. The method, then: as §1, §2
The target in assay [4] is T2, hIL27Ra-his (Origene, Catalog #TP307012) (human, UniProt Q6UWB1 33-516, limits assumed).
T2 construct: Bought his-tagged cytokine receptor used as SPR analyte; also called human IL27 receptor subunit alpha; not shown: his tag
T2 sequence: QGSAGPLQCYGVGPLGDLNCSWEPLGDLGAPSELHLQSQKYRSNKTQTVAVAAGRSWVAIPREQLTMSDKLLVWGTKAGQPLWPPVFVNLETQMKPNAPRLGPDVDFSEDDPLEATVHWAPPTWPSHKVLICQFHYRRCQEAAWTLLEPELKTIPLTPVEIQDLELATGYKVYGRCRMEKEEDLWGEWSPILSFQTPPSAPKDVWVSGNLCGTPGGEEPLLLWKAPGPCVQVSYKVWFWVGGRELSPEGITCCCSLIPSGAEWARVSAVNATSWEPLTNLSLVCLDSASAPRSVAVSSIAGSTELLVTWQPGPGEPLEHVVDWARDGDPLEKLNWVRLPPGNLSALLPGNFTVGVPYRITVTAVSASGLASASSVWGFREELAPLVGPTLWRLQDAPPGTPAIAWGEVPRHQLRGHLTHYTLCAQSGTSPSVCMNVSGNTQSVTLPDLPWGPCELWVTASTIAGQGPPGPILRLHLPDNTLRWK
As to the kind of experiment: SPR Biacore T200, hIL27Ra arm.

For assay [5], the target named is T2, hIL27Ra-his (Origene, Catalog #TP307012). Description: SPR Biacore T200; ratio experimental/calculated Rmax. The method, then:
as §1, §2

Assay [6] shares this target. As to the kind of experiment: SPR Biacore T200; mono-Fc VHH on Protein A chip, hIL27Ra-his analyte. Here is the method: as §1, §2

B1: 17-DR594 (SEQ ID NO. 235), anti-hGP130 Mono-Fc VHH (Fc fusion)
chain: QVQLQESGGGSVQAGGSLRLSCVASASTYCTYDMHWYRQAPGKGREFVSAIDSDGTTRYADSVKGRFTISQGTAKNTVYLQMNSLQPEDTAMYYCKTVCVVGSRWSDYWGQGTQVTVSS
notes: Mono-Fc VHH ligand captured on a Protein A chip; not shown: mono-Fc part
In the case of B1, the “Surface Activity” value in assay [1] was 21%. Besides, in assay [2], the Kd stood at 58 nM, the koff came to 0.0095 s⁻¹ and the kon turned out to be 160000 M⁻¹ s⁻¹. In assay [3], the Kd was 58 nM, the koff is 0.0095 s⁻¹ and the kon was 160000 M⁻¹ s⁻¹.

B2: 16-DR593 (SEQ ID NO. 234), anti-hGP130 Mono-Fc VHH (Fc fusion)
chain: QVQLQESGGGSVQAGGSLRLSCAASGYPYSNGYMGWFRQAPGKEREGVATIYTGDGRTYYADSVKGRFTISRDNAKNTVDLQMSSLKPEDTAMYYCAARAAPLYSSGSPLTRARYNVWGQGTQVTVSS
notes: as for B1
As to B2, the “Surface Activity” value in assay [1] is 20%. In assay [2], this molecule gave a Kd of 82 nM, a koff of 0.021 s⁻¹ and a kon of 250000 M⁻¹ s⁻¹. In assay [3], this molecule displayed a Kd of 82 nM, a koff of 0.021 s⁻¹ and a kon of 250000 M⁻¹ s⁻¹.

B3: hIL27Ra_VHH19 (VHH)
VHH: QVQLQESGGGSVQAGGSLRLSCRASGSTYSNYCLGWFRQITGKEREGVAVINWVGGMLYFADSVKGRFTVSQDQAKNTVYLQMNSLKPEDTAMYYCAAESVSSFSCGGWLTRPDRVPYWGQGTQVTVSS
In assay [4], B3 showed a Kd of 5.2 nM, a koff of 0.00076 s⁻¹ and a kon of 150000 M⁻¹ s⁻¹.

B4: 14-DR591 (SEQ ID NO. 232), anti-hGP130 Mono-Fc VHH (Fc fusion)
chain: QVQLQESGGGSVQAGGSLRLSCTASGAIASGYIDSRWCMAWFRQAPGKEREGVAAIWPGGGLTVYADSVKGRFTISRDHAKNTLYLQMNNLKPEDTAMYYCAAGSPRMCPSLEFGFDYWGQGTQVTVSS
notes: Tested as Mono-Fc VHH ligand captured on a Protein A chip; not shown: mono-Fc part
Turning to B4, in assay [1], the “Surface Activity” value was 21%. In assay [2], this molecule displayed a Kd of 33 nM, a koff of 0.0019 s⁻¹ and a kon of 59000 M⁻¹ s⁻¹. In assay [3], this molecule registered a Kd of 33 nM, a koff of 0.0019 s⁻¹ and a kon of 59000 M⁻¹ s⁻¹.

B5: hIL27Ra_VHH9 (VHH)
VHH: QVQLQESGGGSVQSGGSLRLSCAASGFTYSTSNSWMAWFRQAPGKEREGVAAIYTVGGSIFYADSVRGRFTISQDATKNMFYLQMNTLKPEDTAMYYCAAASGRLRGKWFWPYEYNYWGQGTQVTVSS
For the molecule B5, in assay [4], binding was characterised by a dissociation constant (Kd) of 4.5 nM, the koff stood at 0.00041 s⁻¹ and the on-rate (kon) was found to be 91000 M⁻¹ s⁻¹.

B6: 23-DR600 (SEQ ID NO. 248), anti-hIL27Ra Mono-Fc VHH (Fc fusion)
chain: QVQLQESGGGSVQSGGSLRLSCAASGFTYSTSNSWMAWFRQAPGKEREGVAAIYTVGGSIFYADSVRGRFTISQDATKNMFYLQMNTLKPEDTAMYYCAAASGRLRGKWFWPYEYNYWGQGTQVTVSS
notes: as for B1
For the molecule B6, the “Surface Activity” value in assay [5] was 13%. Moreover, in assay [6], binding was characterised by a dissociation constant (Kd) of 17 nM, the koff was 0.001 s⁻¹ and the kon was found to be 59000 M⁻¹ s⁻¹.

B7: 15-DR592 (SEQ ID NO. 233), anti-hGP130 Mono-Fc VHH (Fc fusion)
chain: QVQLQESGGGSVQAGGSLRLSCTAPGFTSNSCGMDWYRQAPGKEREFVSSISTDGTTGYADSVKGRFTISKDKAKDTVYLQMNSLKPEDTGMYSCKTKDGTIATMELCDFGYWGQGTQVTVSS
notes: as for B1
In the case of B7, in assay [1], the “Surface Activity” value is 33%. For the same molecule, in assay [2], the affinity, expressed as Kd, was 38 nM; the koff came to 0.0059 s⁻¹; the kon was 160000 M⁻¹ s⁻¹. Besides, in assay [3], the Kd was 38 nM, the koff was found to be 0.0059 s⁻¹ and the kon was 160000 M⁻¹ s⁻¹.

B8: 19-DR596 (SEQ ID NO. 237), anti-hGP130 Mono-Fc VHH (Fc fusion)
chain: QVQLQESGGGLVQPGGSLRLSCTASGLTFDDSVMGWFRQAPGKGREAVSCISSSGANAFYADSVKGRFTISRDNAKNTLYLQMNSLKPEDTATYYCKRGHACAGYYPIPYDDYWGQGTQVTVSS
notes: as for B1
In the case of B8, the “Surface Activity” value in assay [1] was 28%. Further, in assay [2], the Kd is 44 nM, the koff is 0.0082 s⁻¹ and the kon was determined as 190000 M⁻¹ s⁻¹. In assay [3], this molecule came in with a Kd of 44 nM, a koff of 0.0082 s⁻¹ and a kon of 190000 M⁻¹ s⁻¹.

B9: 18-DR595 (SEQ ID NO. 236), anti-hGP130 Mono-Fc VHH (Fc fusion)
chain: QVQLQESGGGSVQAGGSLTLSCAASEYAYSTCNMGWYRQAPGKERELVSAFISDGSTYYADSVKGRFTITRDNAKNTVYLQMNSLKPEDTAIYYCSANCYRRLRNYWGQGTQVTVSS
notes: as for B1
As to B9, in assay [1], the “Surface Activity” value is 33%. In assay [2], this molecule gave a Kd of 41 nM, a koff of 0.0073 s⁻¹ and a kon of 180000 M⁻¹ s⁻¹. In assay [3], this molecule displayed a Kd of 41 nM, a koff of 0.0073 s⁻¹ and a kon of 180000 M⁻¹ s⁻¹.

B10: hIL27Ra_VHH15 (VHH)
VHH: QVQLQESGGGSVQAGGSLRLSCVASGYVSCDYFLPSWYRQAPGKEREFVSIIDGTGSTSYAASVKGRFTASQDKGKNIAYLQMNTLKPEDTAMYYCKASCVRGRAISEYWGQGTQVTVSS
Turning to B10, in assay [4], the affinity, expressed as Kd, was 17 nM; the koff is 0.001 s⁻¹; the kon is 59000 M⁻¹ s⁻¹.

B11: 24-DR601 (SEQ ID NO. 249), anti-hIL27Ra Mono-Fc VHH (Fc fusion)
chain: QVQLQESGGGSVQAGGSLRLSCVASGYVSCDYFLPSWYRQAPGKEREFVSIIDGTGSTSYAASVKGRFTASQDKGKNIAYLQMNTLKPEDTAMYYCKASCVRGRAISEYWGQGTQVTVSS
notes: as for B1
As to B11, the “Surface Activity” value in assay [5] is 12%. Also, in assay [6], the Kd amounted to 4.5 nM, the koff amounted to 0.00041 s⁻¹ and the kon worked out at 91000 M⁻¹ s⁻¹.

B12: hIL27Ra_VHH21 (VHH)
VHH: QVQLQESGGGLVQPGGSLRLSCAASGFTFSLSSMSWVRQAPGKGLEWVSAISSGGASTYYTDSVKGRFTISRDNAKNMLYLQLNSLKTEDTAMYYCAKGGSGYGDASRMTSPGSQGTQVTVSS
As for B12, in assay [4], binding was put at a Kd of 6.1 nM, the koff stood at 0.00077 s⁻¹ and the kon stood at 130000 M⁻¹ s⁻¹.

B13: hIL27Ra_VHH1 (VHH)
VHH: QVQLQESGGGLVQPGGSLRLSCAASGFTFSSYPMSWVRQAPGKGLEWISTISAGGDTTLYADSVKGRFTSSRDNAKNTLYLQLNSLKTEDAAIYYCAKRIDCNSGYCYRRNYWGQGTQVTVSS
In assay [4], B13 showed a Kd of 19 nM, an off-rate (koff) of 0.00057 s⁻¹ and a kon of 30000 M⁻¹ s⁻¹.

B14: 20-DR597 (SEQ ID NO. 245), anti-hIL27Ra Mono-Fc VHH (Fc fusion)
chain: QVQLQESGGGLVQPGGSLRLSCAASGFTFSSYPMSWVRQAPGKGLEWISTISAGGDTTLYADSVKGRFTSSRDNAKNTLYLQLNSLKTEDAAIYYCAKRIDCNSGYCYRRNYWGQGTQVTVSS
notes: as for B1
As for B14, the “Surface Activity” value in assay [5] was 4%. Moreover, in assay [6], the Kd was determined as 19 nM, the koff came to 0.00057 s⁻¹ and the kon was 30000 M⁻¹ s⁻¹.
